The text below walks through data of patent publication EP4321174A1 (Genome and Company, dated 2024).

Common to all, as to test: ELISA, coated CNTN4 domain sample, anti-human IgG Fc-HRP
Background: ELISA stands for enzyme-linked immunosorbent assay.

Assay [1] deals with T1, Human CNTN4 domain sample D1-7 (human, UniProt Q8IWV2 19-697, limits assumed).
T1 construct: domain: Domains 1 to 7; Coated at 2.8 ug/mL
T1 sequence (looked up): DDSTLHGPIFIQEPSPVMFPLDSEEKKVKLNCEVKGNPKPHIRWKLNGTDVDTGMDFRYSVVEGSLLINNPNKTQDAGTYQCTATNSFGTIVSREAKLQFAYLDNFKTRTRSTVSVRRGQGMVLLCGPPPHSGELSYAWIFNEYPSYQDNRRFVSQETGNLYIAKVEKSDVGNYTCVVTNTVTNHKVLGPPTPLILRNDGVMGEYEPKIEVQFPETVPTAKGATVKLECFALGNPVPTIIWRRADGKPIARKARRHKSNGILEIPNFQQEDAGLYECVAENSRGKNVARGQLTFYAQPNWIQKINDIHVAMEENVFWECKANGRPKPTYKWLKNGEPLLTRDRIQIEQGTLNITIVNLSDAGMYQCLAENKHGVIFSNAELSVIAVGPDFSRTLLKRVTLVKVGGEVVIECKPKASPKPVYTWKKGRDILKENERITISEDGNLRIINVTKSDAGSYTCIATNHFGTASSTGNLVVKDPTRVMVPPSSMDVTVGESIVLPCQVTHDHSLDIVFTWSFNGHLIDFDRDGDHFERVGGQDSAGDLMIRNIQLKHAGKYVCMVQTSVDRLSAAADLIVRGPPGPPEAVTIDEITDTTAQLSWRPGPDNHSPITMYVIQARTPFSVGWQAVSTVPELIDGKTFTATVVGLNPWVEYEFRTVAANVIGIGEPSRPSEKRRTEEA

The target of assay [2] is T2, Human CNTN4 domain sample Full (Domains 1 to 10) (human, UniProt Q8IWV2 19-1000, limits assumed).
T2 construct: domain: Domains 1 to 10 (Ig1 to FN4); Coated on the ELISA plate at 4 ug/mL
T2 sequence (looked up): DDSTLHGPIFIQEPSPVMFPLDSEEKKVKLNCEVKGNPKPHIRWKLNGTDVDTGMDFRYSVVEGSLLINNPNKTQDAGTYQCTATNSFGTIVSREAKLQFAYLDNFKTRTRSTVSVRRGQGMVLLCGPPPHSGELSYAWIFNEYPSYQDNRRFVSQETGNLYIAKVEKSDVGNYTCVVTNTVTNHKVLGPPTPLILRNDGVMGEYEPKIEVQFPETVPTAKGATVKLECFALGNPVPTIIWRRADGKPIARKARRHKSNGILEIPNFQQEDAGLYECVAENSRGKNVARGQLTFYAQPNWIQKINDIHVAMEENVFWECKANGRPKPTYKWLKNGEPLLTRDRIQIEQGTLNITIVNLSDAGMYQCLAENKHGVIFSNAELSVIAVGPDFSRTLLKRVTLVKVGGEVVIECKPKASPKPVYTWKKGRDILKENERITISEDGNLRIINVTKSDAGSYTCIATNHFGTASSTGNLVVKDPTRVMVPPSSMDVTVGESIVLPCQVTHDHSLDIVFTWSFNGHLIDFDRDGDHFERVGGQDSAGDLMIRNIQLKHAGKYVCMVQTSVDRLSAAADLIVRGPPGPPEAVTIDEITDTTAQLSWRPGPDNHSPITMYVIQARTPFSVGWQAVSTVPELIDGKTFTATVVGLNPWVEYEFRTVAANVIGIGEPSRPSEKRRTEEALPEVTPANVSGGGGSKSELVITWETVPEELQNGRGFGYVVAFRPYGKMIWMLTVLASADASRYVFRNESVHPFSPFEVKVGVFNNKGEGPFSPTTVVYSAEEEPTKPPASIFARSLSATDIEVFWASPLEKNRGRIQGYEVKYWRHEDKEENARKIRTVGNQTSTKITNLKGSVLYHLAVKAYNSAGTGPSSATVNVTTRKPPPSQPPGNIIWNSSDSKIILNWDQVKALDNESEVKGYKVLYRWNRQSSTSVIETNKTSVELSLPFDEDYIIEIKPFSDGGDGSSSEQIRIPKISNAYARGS

Assay [3] deals with T3, Human CNTN4 domain sample D1-4 (human, UniProt Q8IWV2 19-400, limits assumed).
T3 construct: domain: Domains 1 to 4; Coated at 1.6 ug/mL
T3 sequence (looked up): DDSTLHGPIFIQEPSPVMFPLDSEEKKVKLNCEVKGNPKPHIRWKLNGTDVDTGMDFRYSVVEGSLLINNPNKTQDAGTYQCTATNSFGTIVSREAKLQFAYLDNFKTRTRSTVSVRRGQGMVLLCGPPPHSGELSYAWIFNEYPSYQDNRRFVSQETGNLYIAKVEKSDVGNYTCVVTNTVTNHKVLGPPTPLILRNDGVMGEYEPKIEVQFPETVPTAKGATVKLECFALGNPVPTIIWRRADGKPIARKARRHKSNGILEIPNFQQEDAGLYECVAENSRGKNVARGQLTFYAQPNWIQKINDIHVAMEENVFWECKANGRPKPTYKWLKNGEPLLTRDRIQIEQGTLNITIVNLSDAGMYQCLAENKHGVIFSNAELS

The target in assay [4] is T4, Human CNTN4 domain sample D1-8 (human, UniProt Q8IWV2 19-799, limits assumed).
T4 construct: domain: Domains 1 to 8; Coated at 3.2 ug/mL
T4 sequence (looked up): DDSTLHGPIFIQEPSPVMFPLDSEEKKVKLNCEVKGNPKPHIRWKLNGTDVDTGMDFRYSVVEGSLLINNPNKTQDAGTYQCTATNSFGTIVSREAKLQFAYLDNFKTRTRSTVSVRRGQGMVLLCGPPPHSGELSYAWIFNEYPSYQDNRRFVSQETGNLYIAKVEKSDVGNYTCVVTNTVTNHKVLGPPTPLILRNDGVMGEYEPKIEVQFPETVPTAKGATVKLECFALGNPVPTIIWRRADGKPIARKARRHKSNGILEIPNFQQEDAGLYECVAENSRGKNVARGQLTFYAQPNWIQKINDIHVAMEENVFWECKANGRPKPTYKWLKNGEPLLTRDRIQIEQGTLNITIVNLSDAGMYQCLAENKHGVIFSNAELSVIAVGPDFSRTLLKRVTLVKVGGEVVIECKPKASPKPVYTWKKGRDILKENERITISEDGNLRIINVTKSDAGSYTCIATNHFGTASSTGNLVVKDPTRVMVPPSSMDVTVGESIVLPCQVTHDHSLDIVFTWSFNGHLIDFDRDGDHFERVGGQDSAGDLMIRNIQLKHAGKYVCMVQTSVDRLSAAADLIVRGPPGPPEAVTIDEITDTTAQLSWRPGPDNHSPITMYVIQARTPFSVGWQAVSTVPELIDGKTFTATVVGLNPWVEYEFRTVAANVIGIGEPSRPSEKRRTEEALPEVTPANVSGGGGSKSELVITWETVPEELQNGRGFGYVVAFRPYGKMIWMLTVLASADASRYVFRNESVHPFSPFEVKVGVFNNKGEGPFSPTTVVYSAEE

In assay [5] the target is T5, Human CNTN4 domain sample D1-9 (human, UniProt Q8IWV2 19-899, limits assumed).
T5 construct: domain: Domains 1 to 9; Coated at 3.6 ug/mL
T5 sequence (looked up): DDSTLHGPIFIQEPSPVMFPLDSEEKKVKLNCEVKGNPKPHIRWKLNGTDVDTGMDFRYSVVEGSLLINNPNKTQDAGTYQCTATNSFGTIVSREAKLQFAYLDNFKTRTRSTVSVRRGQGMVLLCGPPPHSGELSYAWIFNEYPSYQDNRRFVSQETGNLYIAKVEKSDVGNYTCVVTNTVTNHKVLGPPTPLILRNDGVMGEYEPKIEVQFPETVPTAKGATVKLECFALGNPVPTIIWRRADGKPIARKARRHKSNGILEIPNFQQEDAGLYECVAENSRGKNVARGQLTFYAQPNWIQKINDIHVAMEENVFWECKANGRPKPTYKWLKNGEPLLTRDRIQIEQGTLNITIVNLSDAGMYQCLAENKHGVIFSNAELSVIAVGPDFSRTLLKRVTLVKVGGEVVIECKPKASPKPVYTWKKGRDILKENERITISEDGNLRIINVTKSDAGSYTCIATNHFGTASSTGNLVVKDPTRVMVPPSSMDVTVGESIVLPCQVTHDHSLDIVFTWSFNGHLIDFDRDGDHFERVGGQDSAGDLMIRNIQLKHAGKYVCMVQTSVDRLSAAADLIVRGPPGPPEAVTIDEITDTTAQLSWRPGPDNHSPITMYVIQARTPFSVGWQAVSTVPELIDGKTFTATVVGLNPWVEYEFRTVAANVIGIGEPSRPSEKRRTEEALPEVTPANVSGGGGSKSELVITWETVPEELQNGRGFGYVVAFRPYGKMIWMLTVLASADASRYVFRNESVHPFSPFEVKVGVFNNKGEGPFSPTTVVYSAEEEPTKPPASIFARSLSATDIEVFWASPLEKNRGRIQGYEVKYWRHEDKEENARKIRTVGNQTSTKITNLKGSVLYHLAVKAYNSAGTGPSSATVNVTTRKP

The target in assay [6] is T6, Human CNTN4 domain sample D1-6 (human, UniProt Q8IWV2 19-586, limits assumed).
T6 construct: domain: Domains 1 to 6; Coated at 2.3 ug/mL
T6 sequence (looked up): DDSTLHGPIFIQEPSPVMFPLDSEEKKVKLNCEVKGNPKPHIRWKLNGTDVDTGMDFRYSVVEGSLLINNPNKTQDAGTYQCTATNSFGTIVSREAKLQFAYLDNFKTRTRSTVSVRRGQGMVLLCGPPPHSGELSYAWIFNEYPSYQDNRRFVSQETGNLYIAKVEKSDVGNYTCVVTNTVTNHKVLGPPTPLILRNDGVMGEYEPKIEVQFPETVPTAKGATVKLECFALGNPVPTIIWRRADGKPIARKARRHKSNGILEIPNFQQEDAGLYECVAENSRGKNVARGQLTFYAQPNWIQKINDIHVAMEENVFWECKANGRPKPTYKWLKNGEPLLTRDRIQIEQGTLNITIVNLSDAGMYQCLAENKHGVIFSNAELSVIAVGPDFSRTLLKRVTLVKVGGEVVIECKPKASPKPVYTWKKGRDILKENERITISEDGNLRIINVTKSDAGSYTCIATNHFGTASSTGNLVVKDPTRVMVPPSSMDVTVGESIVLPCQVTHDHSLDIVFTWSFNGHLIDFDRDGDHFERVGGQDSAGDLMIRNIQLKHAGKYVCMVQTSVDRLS

The target in assay [7] is T7, Human CNTN4 domain sample D1-5 (human, UniProt Q8IWV2 19-493, limits assumed).
T7 construct: domain: Domains 1 to 5; Coated at 2.0 ug/mL
T7 sequence (looked up): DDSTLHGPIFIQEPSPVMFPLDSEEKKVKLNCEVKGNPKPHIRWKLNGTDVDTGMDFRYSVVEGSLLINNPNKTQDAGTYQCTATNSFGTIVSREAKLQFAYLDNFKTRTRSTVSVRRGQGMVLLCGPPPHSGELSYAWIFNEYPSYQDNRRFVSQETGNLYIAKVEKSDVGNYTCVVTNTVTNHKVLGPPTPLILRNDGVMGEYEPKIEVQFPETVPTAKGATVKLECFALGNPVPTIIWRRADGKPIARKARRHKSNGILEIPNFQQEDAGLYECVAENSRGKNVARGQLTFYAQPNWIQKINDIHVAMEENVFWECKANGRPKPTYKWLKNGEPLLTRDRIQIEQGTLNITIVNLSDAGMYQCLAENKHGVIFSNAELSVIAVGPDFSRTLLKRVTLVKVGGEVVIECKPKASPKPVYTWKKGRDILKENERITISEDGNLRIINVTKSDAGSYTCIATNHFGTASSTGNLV

B1: anti-CNTN4 chicken-human chimeric IgG4 antibody AB1 (antibody, V domains shown)
VH: AVTLDESEGGLQTPGGALSLVCKASGFTFSSFNMFWVRQAPGKGLEYVAEISGGGGSTWYAPAVKGRATISRDNGQSTVRLQLNNLRAEDTGTYYCAKSADTWSYGAATIDAWGHGTEVIVSS
VL: ALTQPSSVSANLGETVKITCSGSSGSYGWYQQKSPGSAPVTLIYDNTNRPSDIPSRFSGSGSGSTGTLTITGVRAEDEAVYYCGGYDGSTDVFGAGTTLTVL
notes: They were cloned into a chicken-human chimeric IgG4 and purified on Kappa select resin, so the light chain has a kappa constant region; also called anti-CNTN4 antibody AB1; anti-CNTN4 129 chimeric IgG4 antibody
On to B1, for which the binding result is “no binding” in assay [1]; “binds” in assay [2]; “no binding” in assay [3]; “binds” in assay [4]; “binds” in assay [5]; “no binding” in assay [6]. Moreover, the binding result in assay [7] is on record as “no binding”.
